Results reported in the supplement of paper PMC10567573.
± gives the standard deviation.

Assay: protein stability index of a GFP-peptide fusion (GPS, HEK-293T) (PSI 1-6); higher = more stable
[1] = treatment: DMSO, c terminus: a fixed tail appended
[2] = treatment: MLN4924 1 uM, 8 h, c terminus: a fixed tail appended
[3] = treatment: DMSO, c terminus: native
[4] = treatment: MLN4924 1 uM, 8 h, c terminus: native
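Further: 24-mer peptide tiles fused after GFP, lentivirally expressed, FACS-sorted into six equal bins by GFP/DsRed ratio, decoded by Illumina sequencing, PSI is the read-weighted mean bin number.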

Sequence | protein stability index [1] | protein stability index [2] | protein stability index [3] | protein stability index [4]
HMTRHLEESEKAMQERVQRLEAAR [LRRC45] | 5.15 ± 0.06 | 5.06 ± 0.19 | – | –
VNAVLTQIDQIKRHSNVVILTTSN [TRIP13] | 1.92 ± 0.46 | 1.95 ± 0.24 | – | –
PDNCEMFLNFNGMKLFLDCLKEFP [ZER1] | 2.25 ± 0.18 | 2.19 ± 0.33 | – | –
TIDKQREEMAKSSRASAARVGQLQ [LRRC45] | 4.67 ± 0.14 | 4.73 ± 0.14 | – | –
FPHPLWLRDTYKLWVPQPPPRTIK [PWWP2B] | 2.33 ± 0.17 | 2.71 ± 0.33 | – | –
FSDVTFILDDGTISAHKPLLISSC [RHOBTB2] | 2.47 ± 0.15 | 2.25 ± 0.29 | – | –
LPSAQDINRLVGLQNTYMGYLDYR [GLT8D2] | 2.52 ± 0.28 | 2.52 ± 0.38 | – | –
DIKQLIAKKIKLTAEAEELKPFFM [SOAT1] | 2.59 ± 0.59 | 2.15 ± 0.1 | – | –
LMSGALAVNQKIDRESLCGASTSC [PCDHGC5] | 3.67 ± 0.4 | 3.6 ± 0.095 | – | –
SRDGATGHVLLTDSEFSMQEPMVP [PPFIA4] | 4.6 ± 0.27 | 4.6 ± 0.29 | – | –
KHWREWGSHAQTSQIQSIRRIQQ [CRYBA1] | – | – | 3.25 ± 0.69 | 3.19 ± 0.46
SWASAQVQILCHTYWEHWTSQGQV [RTP4] | 2.8 ± 0.74 | 2.77 ± 0.75 | – | –
GEDQAFGDWLLTANGSEIHKHVHF [SLC22A15] | 3.03 ± 0.26 | 3.09 ± 0.26 | – | –
EKGTWTELEGDVAEPLAGPACVTV [KLHL14] | 4.66 ± 0.19 | 4.6 ± 0.19 | – | –
QSQLSMKAGLENSLAETECRYATQ [KRT15] | 4.38 ± 0.23 | 4.46 ± 0.17 | – | –
VRTTRGKRKRVDVEESEASSSVSI [LMNB1] | 5.13 ± 0.17 | 5.09 ± 0.44 | – | –
MFLEISSYYDPGRLICDFPFDGLL [VPS39] | – | 3.39 ± 1.3 | – | –
RAVNSLSMENANQENEEKEQVANK [BEX1] | 5.52 ± 0.24 | 5.5 ± 0.34 | – | –
YLPKNTHPFLYLSLEISPQNVDVN [MLH1] | 3.23 ± 1.1 | 2.09 ± 0.3 | – | –
PDPEPPPVTPQVGEGRKSRKFSRL [SMG5] | 3.98 ± 0.27 | 4.14 ± 0.45 | – | –
GFGLAHTPLEPDAKDLPCDSKPES [TBX5] | 5.38 ± 0.51 | 5.47 ± 0.43 | – | –
LTAALLTFDTGCLTLSQYILLDPI [POMT2] | 3.36 ± 0.32 | 3.12 ± 0.14 | – | –
ALVGDEVELPCRISPGKNATGMEV [MOG] | 4.03 ± 0.22 | 4.23 ± 0.26 | – | –

Sequence | protein stability index [1] | protein stability index [2] | protein stability index [3] | protein stability index [4]
LGLTQNPEGQKVLFVTFLLIYMVT [OR4A15] | 2.75 ± 0.66 | 3.33 ± 1.1 | – | –
PIDVVEKYDPKTQEWSFLPSITRK [KLHL12] | 4.56 ± 0.27 | 4.64 ± 0.33 | – | –
GGSGGGSHHHHQSRGACTSHDPQS [KCNA4] | 5.08 ± 0.24 | 5.12 ± 0.33 | – | –
FSKVKTSLGLDHCHSFISGTAPLN [ACSBG2] | 2.52 ± 0.3 | 2.44 ± 0.29 | – | –
TEAANAARHVAPEIRELLTQFET [PWWP2B] | – | – | 3.49 ± 0.21 | 3.88 ± 0.29
EQAQAYAERLGVTFFEVSPLCNFN [RAB40A] | 2.25 ± 0.26 | 2.48 ± 0.3 | – | –
CLLQPPSCPNGMSAENGLEKSGFS [DLC1] | 3.99 ± 0.14 | 3.44 ± 0.8 | – | –
HAFQKELTCVICLNYLVDPVTICC [TRIM43] | 3.04 ± 0.33 | 2.95 ± 0.4 | – | –
LKISPVTLKEAYVQKLVKVCTDTD [TENT5C] | 2.94 ± 0.16 | 2.91 ± 0.14 | – | –
CAVLLSAVQAQAGWLQHDFGHLSV [FADS1] | 3.25 ± 0.5 | 3.3 ± 0.65 | – | –
PLLPLDMQGNQILVFPSSSSSSSS [ZBTB22] | 3.93 ± 0.24 | 4.1 ± 0.18 | – | –
DVVNYFRTVGFEEQASAFQEQEID [SAMD13] | 3.44 ± 0.28 | 3.88 ± 0.44 | – | –
VAITVEVKQEEDIKPPPPLVLNSQ [RAD54B] | 3 ± 0.26 | 2.98 ± 0.24 | – | –
QKCHSIGETDEVTKTEDRELVLRK [ZSCAN9] | 5.32 ± 0.3 | 5.37 ± 0.2 | – | –
PHLRSFCETCVGSWSIQMRQHHHQ | 2.4 ± 0.25 | 2.34 ± 0.23 | – | –
EDYGHWLLCLRAVTHREGAPPLPG [PLEKHN1] | 2 ± 0.14 | 2.16 ± 0.26 | – | –
FEEQENYFLLCDVLPEDRILREEL [ZNF277] | 3.26 ± 0.16 | 3.5 ± 0.67 | – | –
NLENPMRRIHSLPQKLLGCSPALK [CDC25A] | 2.64 ± 0.23 | 3.11 ± 0.32 | – | –
KVIERGERLDELQDKSESLSDNAT [VAMP4] | 5.38 ± 0.13 | 5.33 ± 0.18 | – | –
FHVDSAAEYYRLHLEGYHGTAGDS [TNXB] | 2.81 ± 0.27 | 3.17 ± 0.31 | – | –
KALNTFIDDLFAFVIKMPVMYRIG [CLPTM1] | 3.02 ± 0.53 | 2.82 ± 0.5 | – | –
AYFAGNQKQLEQTLQQFNIKLRPP [ARFIP2] | 2.63 ± 0.16 | 2.76 ± 0.29 | – | –
